{
  "source": "patent US20240092872A1",
  "about": "(VIR BIOTECHNOLOGY, published 2024)",
  "binders": {"B1": {"name": "HBC34-V35-MLNS-GAALIE (antibody, human IgG1, lambda)", "heavy": "ELQLVESGGGWVQPGGSQRLSCAASGRIFRSFYMSWVRQAPGKGLEWVATINQDGSEKLYVDSVKGRFTISRDNAKNSLFLQMNNLRVEDTAVYYCAAWSGNSGGMDVWGQGTTVSVSSASTKGPSVFPLAPSSKSTSGGTAALGCLVKDYFPEPVTVSWNSGALTSGVHTFPAVLQSSGLYSLSSVVTVPSSSLGTQTYICNVNHKPSNTKVDKKVEPKSCDKTHTCPPCPAPELLAGPSVFLFPPKPKDTLMISRTPEVTCVVVDVSHEDPEVKFNWYVDGVEVHNAKTKPREEQYNSTYRVVSVLTVLHQDWLNGKEYKCKVSNKALPLPEEKTISKAKGQPREPQVYTLPPSRDELTKNQVSLTCLVKGFYPSDIAVEWESNGQPENNYKTTPPVLDSDGSFFLYSKLTVDKSRWQQGNVFSCSVLHEALHSHYTQKSLSLSPGK", "light": "SYELTQPPSVSVSPGQTVSIPCSGDKLGNKNVAWFQHKPGQSPVLVIYEVKYRPSGIPERFSGSNSGNTATLTISGTQAMDEAAYFCQTFDSTTVVFGGGTRLTVLGQPKAAPSVTLFPPSSEELQANKATLVCLISDFYPGAVTVAWKADSSPVKAGVETTTPSKQSNNKYAASSYLSLTPEQWKSHRSYSCQVTHEGSTVEKTVAPTECS"}},
  "key": {"[1]": {"biological_target": "T1, Human complement component C1q (human, UniProt P02745 23-245; P02746 28-253; P02747 29-245)", "T1 construct": "mature; also called purified human C1q", "T1 sequence (P02745 23-245, chain 1 of 3)": "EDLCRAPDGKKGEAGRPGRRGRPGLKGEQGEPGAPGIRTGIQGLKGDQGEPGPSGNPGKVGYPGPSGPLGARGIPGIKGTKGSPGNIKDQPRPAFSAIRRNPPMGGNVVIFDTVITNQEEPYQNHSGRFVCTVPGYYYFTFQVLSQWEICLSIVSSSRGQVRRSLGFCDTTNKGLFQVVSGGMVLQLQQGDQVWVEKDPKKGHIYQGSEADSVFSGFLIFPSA", "T1 sequence (P02746 28-253, chain 2 of 3)": "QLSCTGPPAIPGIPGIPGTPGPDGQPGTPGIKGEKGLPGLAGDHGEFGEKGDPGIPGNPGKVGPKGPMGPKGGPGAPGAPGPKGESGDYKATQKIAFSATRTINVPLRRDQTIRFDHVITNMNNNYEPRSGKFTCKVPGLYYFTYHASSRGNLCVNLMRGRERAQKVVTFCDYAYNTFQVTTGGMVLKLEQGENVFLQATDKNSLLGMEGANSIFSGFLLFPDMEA", "T1 sequence (P02747 29-245, chain 3 of 3)": "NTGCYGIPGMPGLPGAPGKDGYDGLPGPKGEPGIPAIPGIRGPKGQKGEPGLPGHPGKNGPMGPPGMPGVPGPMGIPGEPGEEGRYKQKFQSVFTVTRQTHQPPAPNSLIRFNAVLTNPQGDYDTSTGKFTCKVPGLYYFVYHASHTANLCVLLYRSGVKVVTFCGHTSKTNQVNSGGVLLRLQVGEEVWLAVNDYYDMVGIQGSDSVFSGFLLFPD", "assay": "BLI (Octet RED96); IgG captured through the Fab on anti-human Fab (CH1) sensors", "experimental": "IgG-loaded sensors were then exposed for 4 minutes to a solution of kinetics buffer (pH 7.1) containing 3 μg/ml of purified human C1q (left part of the plot), followed by a dissociation step in the same buffer for 4 additional minutes (right part of the plot). Association and dissociation profiles were measured in real time as change in the interference pattern using an Octet RED96 (FortéBio)."}, "[2]": {"biological_target": "T2, His-tagged human FcγRIIa allele R131 (human, UniProt P12318 34-218)", "T2 construct": "also called FcγRIIa R131", "T2 sequence (looked up)": "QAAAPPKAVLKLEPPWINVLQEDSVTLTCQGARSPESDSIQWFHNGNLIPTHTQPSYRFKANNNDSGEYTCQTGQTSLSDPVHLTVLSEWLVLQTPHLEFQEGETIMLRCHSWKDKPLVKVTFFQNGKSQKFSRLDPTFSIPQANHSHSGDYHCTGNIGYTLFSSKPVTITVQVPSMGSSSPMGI", "assay": "BLI (Octet RED96); His-tagged FcγR on anti-penta-His sensors, 2 µg/ml mAb cross-linked with anti-human F(ab')2", "experimental": "(§1) Briefly, His-tagged human FcγRs (FcγRIIa allele H131, FcγRIIa allele R131, FcγRIIAa allele F158, FcγRIIIa allele V158 and FcγRIIb) at 2 μg/ml were captured onto anti-penta-His sensors for 6 minutes. FcγR-loaded sensors were then exposed for 4 minutes to a solution of kinetics buffer (pH 7.1) containing 2 μg/ml of each mAb in the presence 1 μg/ml of affiniPure F(ab′)₂ Fragment Goat Anti-Human IgG, F(ab′)₂ fragment-specific (to cross-link human mAbs through the Fab fragment), followed by a dissociation step in the same buffer for 4 additional minutes (right part of the plot). Association and dissociation profiles were measured in real time as change in the interference pattern using an Octet RED96 (FortéBio)."}, "[3]": {"biological_target": "T3, Recombinant human FcγRIIIa (V158) (human, UniProt P08637 17-208)", "T3 construct": "also called FcγRIIIa allele V158; His-tagged human FcγRIIIa V158", "T3 sequence (P08637 other isoform, or with tags, fused parts or gaps limits assumed)": "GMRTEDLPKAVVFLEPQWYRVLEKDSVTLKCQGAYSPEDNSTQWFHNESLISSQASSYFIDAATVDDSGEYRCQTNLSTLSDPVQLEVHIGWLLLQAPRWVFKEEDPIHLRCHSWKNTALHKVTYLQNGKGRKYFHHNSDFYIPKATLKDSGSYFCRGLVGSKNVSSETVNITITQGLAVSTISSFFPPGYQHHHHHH", "assay": "BLI (Octet RED96); His-tagged FcγR on anti-penta-His sensors, 2 µg/ml mAb cross-linked with anti-human F(ab')2", "experimental": "as §1"}, "[4]": {"biological_target": "T4, Recombinant human FcγRIIIa (F158) (human, UniProt P08637 17-208)", "T4 construct": "also called FcγRIIIa allele F158; His-tagged human FcγRIIIa F158", "T4 sequence (P08637 other isoform, or with tags, fused parts or gaps limits assumed)": "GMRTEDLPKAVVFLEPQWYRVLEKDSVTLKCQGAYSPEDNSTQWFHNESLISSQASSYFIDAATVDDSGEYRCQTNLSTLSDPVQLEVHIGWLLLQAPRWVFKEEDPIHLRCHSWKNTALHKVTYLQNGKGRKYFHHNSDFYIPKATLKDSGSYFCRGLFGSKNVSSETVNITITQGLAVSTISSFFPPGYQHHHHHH", "assay": "BLI (Octet RED96); His-tagged FcγR on anti-penta-His sensors, 2 µg/ml mAb cross-linked with anti-human F(ab')2", "experimental": "as §1"}, "[5]": {"biological_target": "T5, Recombinant human FcγRIIa (H131) (human, UniProt P12318 34-218)", "T5 construct": "also called FcγRIIa allele H131; His-tagged human FcγRIIa H131", "T5 sequence": "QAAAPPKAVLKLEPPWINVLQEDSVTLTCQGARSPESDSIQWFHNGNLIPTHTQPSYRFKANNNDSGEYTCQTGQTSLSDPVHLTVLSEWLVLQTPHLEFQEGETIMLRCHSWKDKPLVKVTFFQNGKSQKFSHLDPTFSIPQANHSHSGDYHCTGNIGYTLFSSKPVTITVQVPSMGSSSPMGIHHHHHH", "assay": "BLI (Octet RED96); His-tagged FcγR on anti-penta-His sensors, 2 µg/ml mAb cross-linked with anti-human F(ab')2", "experimental": "as §1"}},
  "data": [
    {"binder": "B1", "values": [
      {"measurement": "binding result", "setting": "[1]", "result": "no binding (tested: 3 µg/ml of purified human C1q)"},
      {"measurement": "binding result", "setting": "[2]", "result": "binds"},
      {"measurement": "binding result", "setting": "[3]", "result": "binds"},
      {"measurement": "binding result", "setting": "[4]", "result": "binds"},
      {"measurement": "binding result", "setting": "[5]", "result": "binds"}
    ]}
  ]
}
